Measurements as given in patent US20250170267A1, “ANTIBODY-DRUG CONJUGATE PRECURSOR AND INTERMEDIATE FOR SYNTHESIS THEREOF” (UBE Corporation, priority 2022, published 2025).
Where two headings read alike, the source gives them in different places. Numbered stars: 1 amine (or outer) side, 2 acyl side, 3 side chain; on linkers, the order of the positions; unused ones are H or OH. Square brackets hold non-standard residues; d marks the D form. Peptide text beside a SMILES is read from it. * marks the point of attachment. Exatecan = CC[C@@]1(O)C(=O)OCc2c1cc1n(c2=O)Cc2c-1nc1cc(F)c(C)c3c1c2[C@@H](N*)CC3; βAla(2S-maleimido) = O=C1C=CC(=O)N1[C@@H](CN[*:1])C(=O)[*:2]; Dolaproine = CO[C@@H]([C@@H]1CCCN1)[C@@H](C)C(=O)O; Propanoyl(3-maleimido) = O=C1C=CC(=O)N1CCC(=O)*; X5 = C[C@@H](N[*:1])[C@@H](OC(=O)[*:2])c1ccccc1; NH(CH2CH2O)8Me = COCCOCCOCCOCCOCCOCCOCCOCCN*; Dil = CC[C@H](C)[C@H](NC)[C@@H](CC(=O)O)OC; PABC = O=C(OCc1ccc(N[*:1])cc1)[*:2]; X1 = C[C@@H](N*)[C@@H](O)c1ccccc1; hSer(lactone) = O=C1OCC[C@@H]1N*; Cit = NC(=O)NCCC[C@H](N)C(=O)O; PEG4 = NCCOCCOCCOCCOCCC(=O)O; NMeV = CN[C@H](C(=O)O)C(C)C; X2 = O=C1CC[C@@H](C(=O)*)O1; Sar = CNCC(=O)O

How the values were obtained:
[1] = test system: human liver lysosome; test: Metabolism test using human liver lysosomal fraction; type: in vitro ADME; settings: 37° C., 24 hours, released drug, LC-MS/MS
Method: To a reaction composition solution (X10 Catabolic Buffer (manufactured by SEKISUI-Xenotech, LLC., K5200))(60 μL) in which human liver lysosome (manufactured by SEKISUI-Xenotech, LLC., Cat No. H610.L 2.5 mg/mL)(corresponding to 0.125 mg of protein) was suspended and distilled water (manufactured by FUJIFILM Wako Pure Chemical Corporation, for HPLC)(10 μL) was added 1.2 μM test compound (antibody-drug conjugate produced in ADC Production examples)(25 μL) dissolved in PBS to prepare a reaction solution. After the reaction solution was incubated at 37° C. for 24 hours, “an antitumor drug molecule or an analog thereof, or a derivative thereof” released from the antibody-drug conjugate into the reaction solution was quantified by LC-MS/MS (high performance liquid chromatography/mass spectrometer system) under the following conditions. LC-MS/MS analysis conditions
(§1) LC: LC20 or LC30 HPLC system manufactured by Shimadzu Corporation
(§2) Column: Phenomenex Kinetex C18 (50×2.1 mm, 2.6 μm)
(§3) Column temperature: 40° C.
(§4) Mobile phase A: 0.1% aqueous solution of formic acid, Mobile phase B: 0.1% solution of formic acid in a mixture of 50% acetonitrile/methanol
(§5) Mode: Positive or Negative
(§6) The release rate (%) of drug was calculated by the following equation.

[2] = target: T1, human liver Cathepsin B (Homo sapiens, UniProt P07858); test: Metabolism test using human liver Cathepsin B; type: in vitro ADME; settings: 37° C., 24 hours, released drug, LC-MS/MS
T1 construct: human liver Cathepsin B (manufactured by Sigma-Aldrich Co. LLC, Cat No. C8571 25 μg/vial); purchased Sigma-Aldrich Co. LLC C8571; host or cells: human liver
Method: To human liver Cathepsin B (manufactured by Sigma-Aldrich Co. LLC, Cat No. C8571 25 μg/vial)(corresponding to 400 Unit/mL)(5 μL), X10 Catabolic Buffer (manufactured by SEKISUI-Xenotech, LLC., K5200)(10 μL), 2.5 mM Bovine Serum Albumin (manufactured by FUJIFILM Wako Pure Chemical Corporation, Cat No. 012-15093)(5 μL), and distilled water (manufactured by FUJIFILM Wako Pure Chemical Corporation, for HPLC)(55 μL) was added 1.2 μM test compound (antibody-drug conjugate prepared in ADC Production examples)(25 μL) dissolved in PBS to prepare a reaction solution. After the reaction solution was incubated at 37° C. for 24 hours, “an antitumor drug molecule or an analog thereof, or a derivative thereof” released from the antibody-drug conjugate into the reaction solution was quantified by LC-MS/MS (high performance liquid chromatography/mass spectrometer system) under the following conditions. LC-MS/MS analysis conditions
as §1, §2, §3, §4, §5, §6

[3] = target: T2, porcine tubulin (Sus scrofa, UniProt P02550+P02554); test: Tubulin polymerization inhibition test; type: biochemical
T2 construct: purchased Cytoskeleton, Inc. BK011P
Method: For measuring the tubulin polymerization inhibitory action, Tubulin Polymerization Assay Kit (manufactured by Cytoskeleton, Inc., BK011P) was used. A PIPES buffer containing porcine tubulin, GTP, MgCl2, EGTA, Glycerol, and a fluorescent reporter was prepared under ice-cooling as a reaction solution. The reaction solution was ice-cooled until it was used. A test compound solution was prepared by an aqueous solution containing 1.5% DMSO, and added to a 96 well plate (manufactured by Corning Inc., 3686) at 5 μL/well. The reaction solution was added thereto at 50 μL/well, the plate was placed in a microplate reader (FlexStation 3, manufactured by Molecular Device, LLC) in which the internal temperature was set to 37° C. in advance, and the fluorescence intensity measurement (excitation wavelength: 360 nm, detection wavelength: 420 nm) of each well was started. The fluorescence intensity was measured once every minute, and the measurement was continued for 60 minutes.
The tubulin polymerization inhibition rate (%) was calculated by the following equation.
[formula] • a: average amount of fluorescence intensity increase in vehicle-treated well (n=2) • b: average amount of fluorescence intensity increase in test compound-treated well (n=2)
Amount of fluorescence intensity increase: (average fluorescence intensity after 51 to 60 minutes from measurement start)−(average fluorescence intensity after 1 to 6 minutes from measurement start)

[4] = porcine tubulin, 37° C., fluorescence over 60 minutes, read-out: IC50 value (tubulin polymerization inhibition)

T2 sequence (P02550 whole entry): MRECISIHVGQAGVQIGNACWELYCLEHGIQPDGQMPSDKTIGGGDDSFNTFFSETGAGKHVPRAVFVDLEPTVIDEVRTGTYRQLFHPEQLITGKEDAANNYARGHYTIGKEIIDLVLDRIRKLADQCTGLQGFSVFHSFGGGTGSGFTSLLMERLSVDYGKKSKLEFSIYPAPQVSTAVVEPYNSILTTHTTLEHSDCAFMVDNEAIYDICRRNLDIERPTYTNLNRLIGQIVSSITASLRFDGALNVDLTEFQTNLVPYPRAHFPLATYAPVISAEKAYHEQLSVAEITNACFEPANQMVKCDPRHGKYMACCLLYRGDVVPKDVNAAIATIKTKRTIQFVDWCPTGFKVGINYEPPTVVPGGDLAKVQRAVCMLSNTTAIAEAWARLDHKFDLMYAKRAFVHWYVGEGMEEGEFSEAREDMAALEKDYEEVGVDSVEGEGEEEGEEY
T2 sequence (P02554 whole entry): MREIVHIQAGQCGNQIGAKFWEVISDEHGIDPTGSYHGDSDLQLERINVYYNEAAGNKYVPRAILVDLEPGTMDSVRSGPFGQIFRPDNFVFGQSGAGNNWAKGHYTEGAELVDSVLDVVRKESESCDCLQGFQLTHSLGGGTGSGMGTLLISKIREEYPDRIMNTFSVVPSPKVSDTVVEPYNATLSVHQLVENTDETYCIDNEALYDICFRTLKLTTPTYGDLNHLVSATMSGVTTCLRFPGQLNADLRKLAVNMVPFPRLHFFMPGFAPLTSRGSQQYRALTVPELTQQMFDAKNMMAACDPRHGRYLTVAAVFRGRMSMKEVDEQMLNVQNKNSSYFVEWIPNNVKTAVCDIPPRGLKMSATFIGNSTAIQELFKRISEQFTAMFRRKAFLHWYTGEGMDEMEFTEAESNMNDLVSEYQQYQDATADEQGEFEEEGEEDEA

Structure (SMILES) | Release rate (%) of drug from ADC [1] | Release rate (%) of drug from ADC [2] | IC50 [3, 4] | IC50 [3]
CC[C@@]1(O)C(=O)OCc2c1cc1n(c2=O)Cc2c-1nc1cc(F)c(C)c3c1c2[C@@H](NC(=O)CN(C)C(=O)OCc1ccc(NC(=O)[C@H](CCCNC(N)=O)NC(=O)[C@@H](NC(=O)[C@H](CC(=O)N[C@H]2CCOC2=O)NC(=O)CCOCCOCCOCCOCCNC(=O)CCN2C(=O)C=CC2=O)C(C)C)cc1)CC3 [Example 4] ({Propanoyl(3-maleimido)-PEG4}-D(hSer(lactone))V[Cit][PABC][Sar]-Exatecan) | 76% | 97% |  | 
CC[C@H](C)[C@@H]([C@@H](CC(=O)N1CCC[C@H]1[C@H](OC)[C@@H](C)C(=O)N[C@H](C)[C@@H](O)c1ccccc1)OC)N(C)C(=O)[C@@H](NC(=O)[C@H](C(C)C)N(C)C(=O)OCc1ccc(NC(=O)[C@H](CCCNC(N)=O)NC(=O)[C@@H](NC(=O)[C@H](CC(=O)N[C@H]2CCOC2=O)NC(=O)CCOCCOCCOCCOCCNC(=O)[C@H](CNC(=O)[C@@H]2CCC(=O)O2)N2C(=O)C=CC2=O)C(C)C)cc1)C(C)C [Example 7] (X2-[βAla(2S-maleimido)][PEG4]D(hSer(lactone))V[Cit][PABC][NMeV]V[Dil][Dolaproine]-X1) | 86% | 65% |  | 
CCN(CC(=O)N[C@H]1CCc2c(C)c(F)cc3nc4c(c1c23)Cn1c-4cc2c(c1=O)COC(=O)[C@]2(O)CC)C(=O)OCc1ccc(NC(=O)[C@H](CCCNC(N)=O)NC(=O)[C@@H](NC(=O)[C@H](CC(=O)N[C@H]2CCOC2=O)NC(=O)CCOCCOCCOCCOCCNC(=O)[C@H](CNC(=O)CCP(=O)(O)O)N2C(=O)C=CC2=O)C(C)C)cc1 [Example 9] | 98% | 40% |  | 
CC[C@@]1(OC(=O)OCc2ccc(NC(=O)[C@H](CCCNC(N)=O)NC(=O)[C@@H](NC(=O)[C@H](CC(=O)N[C@H]3CCOC3=O)NC(=O)CCOCCOCCOCCOCCNC(=O)[C@H](CNC(=O)CCP(=O)(O)O)N3C(=O)C=CC3=O)C(C)C)cc2)C(=O)OCc2c1cc1n(c2=O)Cc2c-1nc1cc(F)c(C)c3c1c2[C@@H](NC(C)=O)CC3 [Example 10] | 61% | 28% |  | 
CC[C@@]1(OC(=O)OCc2ccc(NC(=O)[C@H](CCCNC(N)=O)NC(=O)[C@@H](NC(=O)[C@H](CC(=O)N[C@H]3CCOC3=O)NC(=O)CCOCCOCCOCCOCCNC(=O)[C@H](CNC(=O)CCP(=O)(O)O)N3C(=O)C=CC3=O)C(C)C)cc2)C(=O)OCc2c1cc1n(c2=O)Cc2c-1nc1cc(F)c(C)c3c1c2[C@@H](NC(=O)CO)CC3 [Example 11] | 64% | 30% |  | 
CC[C@@]1(O)C(=O)OCc2c1cc1n(c2=O)Cc2c-1nc1cc(F)c(C)c3c1c2[C@@H](NC(=O)COP(=O)(O)OCc1ccc(NC(=O)[C@H](CCCNC(N)=O)NC(=O)[C@@H](NC(=O)[C@H](CC(=O)N[C@H]2CCOC2=O)NC(=O)CCOCCOCCOCCOCCNC(=O)[C@H](CNC(=O)CCP(=O)(O)O)N2C(=O)C=CC2=O)C(C)C)cc1)CC3 [Example 12] | 3.5% | 106% |  | 
CC[C@H](C)[C@@H]([C@@H](CC(=O)N1CCC[C@H]1[C@H](OC)[C@@H](C)C(=O)N[C@H](C)[C@@H](O)c1ccccc1)OC)N(C)C(=O)[C@@H](NC(=O)[C@H](C(C)C)N(C)Cc1cc(N)ccc1F)C(C)C [Example U-008] |  |  | ≤ 3 µM | 
CC[C@H](C)[C@@H]([C@@H](CC(=O)N1CCC[C@H]1[C@H](OC)[C@@H](C)C(=O)N[C@H](C)[C@@H](O)c1ccccc1)OC)N(C)C(=O)[C@@H](NC(=O)[C@H](C(C)C)N(C)C(=O)CNC(=O)CN)C(C)C [Example U-009] (H-GG[NMeV]V[Dil][Dolaproine]-X1) |  |  | ≤ 3 µM | 
CC[C@H](C)[C@@H]([C@@H](CC(=O)N1CCC[C@H]1[C@H](OC)[C@@H](C)C(=O)N[C@H](C)[C@@H](O)c1ccccc1)OC)N(C)C(=O)[C@@H](NC(=O)[C@H](C(C)C)N(C)C)C(C)C [Example U-010] |  |  |  | ≤ 3 µM
CC[C@H](C)[C@@H]([C@@H](CC(=O)N1CCC[C@H]1[C@H](OC)[C@@H](C)C(=O)N[C@H](C)[C@@H](OC(=O)NCCOCCOCCOCCOCCOCCOCCOCCOC)c1ccccc1)OC)N(C)C(=O)[C@@H](NC(=O)[C@@H](NC)C(C)C)C(C)C [Example U-011] (H-[NMeV]V[Dil][Dolaproine][X5]-{NH(CH2CH2O)8Me}) |  |  | ≤ 3 µM | 
